Results as given in patent US20190016790A1 (MEDICINAL BIOCONVERGENCE RESEARCH CENTER, published 2019).
Changes are numbered by the printed parent chain. Values belong to the binder of their own block, whether it stands above or below them.

Experiments:
[1] = molecular target: T1, recombinant PICP protein (procollagen type I C-terminal propeptide), heterotrimer of two PICP α1 chains and … (human, UniProt P02452 1219-1464; P08123 1120-1366); experiment: indirect ELISA, PICP coated at 2 ug/ml, anti-HA-HRP
T1 construct: Biotinylated for the yeast Fab selection; also called recombinant PICP antigen; PIPC; not shown: 8xHis tag conjugated to the N-terminus of the α1 chain; c-Myc tag conjugated to the N-terminus of the α2 chain

[2] = molecular target: T1, recombinant PICP protein (procollagen …); experiment: sandwich ELISA, IgG coated as capture antibody, PICP titrated, polyclonal PICP antibody and anti-rabbit-HRP for detection
Procedure: The binding specificity to PICP by IgG fragment having VH and VL of clones 1 and 2 (referred to as clone IgG and clone 2 IgG) was investigated by sandwich ELISA (FIG. 9).
2D, 4G, clone 1, clone 2 IgG antibodies as capture antibodies were coated on the microtiter plates, and PICP and PIIICP as antigens were added to each well (100 μl/well) at different concentrations, followed by incubation for 1 hour. After washing with 1×PBST (0.05 Tween 20), detection antibodies (polyclonal PICP antibodies) were diluted with 1×PBST, and added in 100 μl for each, followed by incubation for 1 hour. After washing with 1×PBST, rabbit-HRP (Millipore) antibodies were diluted with 1×PBST, and added in 100 μl for each, followed by incubation for 1 hour. After washing with 1×PBST, TMB solution was added to each well (50 μl/well) to investigate a color development reaction, and then the reaction was stopped by addition of 50 μl of 2N stop solution (H₂SO₄). The absorbance was read at a wavelength of 450 nm using ELISA reader (reference 620 nm).

[3] = molecular target: T1, recombinant PICP protein (procollagen …); experiment: yeast surface Fab display, MACS and FACS with biotinylated PICP
Procedure: A method of selecting clones specifically binding to PICP proteins from the yeast Fab library are as follows: Antigen protein PICP and similar protein PIIICP were prepared with purity of 99% or higher by the method of the present invention. The PICP proteins were conjugated to biotin using a kit (EZ-LINKTMSulfo-NHS-LC-Biotinylation kit, Pierce Inc., USA). Thereafter, a procedure of screening the constructed libraries using MACS and FACS and analyzing the induced pool was repeated. Through this, the expression level of antibody Fab and the binding affinity of biotinylated PICP can be analyzed.
The biotinylated PICP (500 nM) was conjugated to Fab library expressed on the yeast cell surface at 25° C. for 1 hour. The Fab library incubated with PICP was conjugated with streptavidin-microbead (Miltenyi Biotec Inc., Germany) at 4° C. for 10 minutes, and then clones conjugated with the biotinylated PICP were selected using magnetic-activated cell sorting (MACS). […] Thereafter, FACS procedure was twice repeated using biotinylated PICP with concentrations of 250 nM and 100 nM. […]

[4] = molecular target: T1, recombinant PICP protein (procollagen …); experiment: SPR, Biacore 2000, PICP immobilized (185 RU), IgG 6.25-100 nM
Source text: Specific experiment conditions are as follows.
The affinity was obtained from kinetic rate constants (ka and kd) and equilibrium dissociation constants (KD) using BIA evaluation ver. 3.2 software.

[5] = molecular target: T2, recombinant procollagen type III C-terminal propeptide (PIIICP), His-tagged (UniProt P02461 1222-1466); experiment: sandwich ELISA, 2D IgG coated at 16 ug/ml as capture antibody, PIIICP titrated, rabbit anti-PICP antibody and goat anti-rabbit IgG-HRP for detection
T2 construct: domain: C-terminal propeptide; Made in HEK293F cells in the same way as PICP; also called comparative antigen; not shown: His tag conjugated to the PIIICP protein
T2 sequence (looked up): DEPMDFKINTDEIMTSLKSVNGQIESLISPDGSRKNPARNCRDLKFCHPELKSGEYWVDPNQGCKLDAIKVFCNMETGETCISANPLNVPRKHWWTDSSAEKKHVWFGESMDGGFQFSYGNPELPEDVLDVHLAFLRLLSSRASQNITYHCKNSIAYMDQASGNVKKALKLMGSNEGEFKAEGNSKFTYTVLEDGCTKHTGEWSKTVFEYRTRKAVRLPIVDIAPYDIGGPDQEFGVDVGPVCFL

[6] = molecular target: T2, recombinant procollagen type III …; experiment: indirect ELISA, PIIICP coated at 2 ug/ml, anti-human IgG-HRP
Procedure: PICP and PIIICP antigens prepared in <Example 1> were immobilized at a concentration of 2 ug/ml on microtiter plates at room temperature for 1 hour, and blocked with 1×PBST containing 2% skim milk at room temperature for 1 hour. 2D IgG and 4G IgG were serially diluted within a range of 15.625-1000 ng/ml, and added at 100 μl per well to the blocked plates, followed by incubation at room temperature for 1 hour. Human IgG-HRP antibodies (Millipore, 1:2,000) as secondary antibodies were added at 10 μl per well, followed by incubation at room temperature for 1 hour. The incubated microtiter plates were washed three or four times with 1×PBST, and then TMB solution was added at 50 μl per well to conduct a color development reaction at room temperature for 5-10 minutes. The color development reaction was stopped using H₂SO₄ (1 M), and then the absorbance was read at 450 nm using ELISA reader.

[7] = molecular target: T3, recombinant PICP α2 chain (c-Myc tag at the N-terminus) (human, UniProt P08123 1120-1366); experiment: Western blot (anti-His, anti-c-Myc) of Ni/NTA-purified recombinant PICP, non-reducing and reducing SDS-PAGE
T3 construct: Co-expressed with the α1 chain in HEK293F cells; also called recombinant procollagen α2 chain; not shown: c-Myc tag at the N-terminus
T3 sequence: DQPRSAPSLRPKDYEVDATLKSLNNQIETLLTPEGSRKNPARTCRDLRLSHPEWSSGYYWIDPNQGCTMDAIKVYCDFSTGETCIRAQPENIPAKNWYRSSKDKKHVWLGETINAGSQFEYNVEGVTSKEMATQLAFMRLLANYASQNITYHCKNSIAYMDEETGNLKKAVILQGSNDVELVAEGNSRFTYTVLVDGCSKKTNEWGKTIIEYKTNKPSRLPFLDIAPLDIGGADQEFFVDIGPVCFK
Procedure: The pSecTag2A-PICP α1 vector and the pSecTag2A-PICP α2 vector were mixed at a molar ratio of 2:1, and co-transfected into HEK293F cells. The co-transfected cells were cultured for 7 days, and culture supernatants were harvested, and the proteins were isolated and purified by the same method as in example <1-2>. PIIICP protein was also expressed, isolated, and purified by the same method. The sizes and purities of the purified proteins were analyzed using SDS-PAGE and western blotting (anti-His tag, anti-c-Myc tag) in reducing or non-reducing conditions.

- binding result [6]: no binding (tested: 1000 ng/ml)
- Kd [4]: 16.8 nM
- koff [4]: 0.00319 s⁻¹
- kon [4]: 190000 M⁻¹ s⁻¹
B7: 4G IgG (antibody, V domains shown)
VH: EVQLLESGGGLVQPGGSLRLSCAASGFTFSNYYMSWVRQAPGKGLEWVSLISSGNGNKYYADSVKGRFTISRDNSKNTLYLQMNSLRAEDTAVYYCARGSRRCSGAPCYSAYGMDVWGQGTLVTVSS
VL: QSVLTQPPSASGTPGQRVTISCTGSSSNIGNNSVTWYQQLPGTAPKLLIYANSQRPSGVPDRFSGSKSGTSASLAISGLRSEDEADYYCGAWDDSLNAYVFGGGTKLTVLG
notes: IgG made from 4G scFv VH and VL in pcDNA3.4 and expressed in 293F cells; Detected with human IgG-HRP; also called IgG containing the variable regions of clone 4G

- binding result [7]: binds
B8: recombinant PICP α1 chain (8xHis tag at the N-terminus) (other)
chain: DDANVVRDRDLEVDTTLKSLSQQIENIRSPEGSRKNPARTCRDLKMCHSDWKSGEYWIDPNQGCNLDAIKVFCNMETGETCVYPTQPSVAQKNWYISKNPKDKRHVWFGESMTDGFQFEYGGQGSDPADVAIQLTFLRLMSTEASQNITYHCKNSVAYMDQQTGNLKKALLLQGSNEIEIRAEGNSRFTYSVTVDGCTSHTGAWGKTVIEYKTTKTSRLPIIDVAPLDVGAPDQEFGFDVGPVCFL
notes: Co-expressed with the α2 chain in HEK293F cells; also called recombinant procollagen α1 chain; not shown: 8xHis tag at the N-terminus

- binding result [3]: binds
B9: clone 1 Fab (Fab, V domains shown)
VH: EVQLVESGGGLVQPGGSLRLSCAASGFTFSYYWMSWVRQAPGKGLEWVSTISYGGGGKYYADSVKGRFTISRDNSKNTLYLQMNSLRAEDTAVYYCVRSYGAIPPNTIDYWGQGTLVTVSS
VL: DIQMTQSPSSLSASVGDRVTITCRASQGISSDLAWYQQKPGKAPKLLIYAASSLQSGVPSRFSGSGSGTDFTLTISSLQPEDFATYYCQQPYSTPSTFGQGTKVEIK

The remaining lines, values behind:

B1: 4G scFv (scFv)
chain: EVQLLESGGGLVQPGGSLRLSCAASGFTFSNYYMSWVRQAPGKGLEWVSLISSGNGNKYYADSVKGRFTISRDNSKNTLYLQMNSLRAEDTAVYYCARGSRRCSGAPCYSAYGMDVWGQGTLVTVSSGGGGSGGGGSGGGGSQSVLTQPPSASGTPGQRVTISCTGSSSNIGNNSVTWYQQLPGTAPKLLIYANSQRPSGVPDRFSGSKSGTSASLAISGLRSEDEADYYCGAWDDSLNAYVFGGGTKLTVLG
- EC50 (read off the curve) [1]: ~0.1 µg/mL

B2: clone 2 IgG (antibody, V domains shown)
VH: EVQLVESGGGLVQPGGSLRLSCAASGFTFSSYWMSWVRQAPGKGLEWVSVISYDGGNKYYADSVKGRFTISRDNSKNTLYLQMNSLRAEDTAVYYCAKWANDHNSDLNFDYWGQGTLVTVSS
VL: DIQMTQSPSSLSASVGDRVTITCRASQGISTDLGWYQQKPGKAPKLLIYAASSLESGVPSRFSGSGSGTDFTLTISSLQPEDFATYYCQQHDSYPTTFGQGTKVEIKR
notes: Chimeric: human Fab VH and VL of yeast clone 2 on mouse IgG2a heavy chain constant domains and mouse kappa light chain
- binding result [2]: binds

B3: clone 1 IgG (antibody, V domains shown)
VH: B9 VH
VL: B2 VL with T31S, G34A, E55Q, H91P, D92Y, Y94T, T96S
notes: Chimeric: human Fab VH and VL of yeast clone 1 on mouse IgG2a heavy chain constant domains and mouse kappa light chain; also called clone IgG
- binding result [2]: binds

B4: clone 2 Fab (Fab, V domains shown)
VH: B2 VH
VL: B9 VL with S31T, A34G, Q55E, P91H, Y92D, T94Y, S96T
- binding result [3]: binds

B5: 2D scFv (scFv)
chain: EVQLLESGGGLVQPGGSLRLSCAASGFTFSSYYMSWVRQAPGKGLEWVSGISPGSGSKYYADSVKGRFTISRDNSKNTLYLQMNSLRAEDTAVYYCARATVPCKGPACYSAYGMDVWGQGTLVTVSSGGGGSGGGGSGGGGSQSVLTQPPSAPGTPGQRVTISCSGSSSNIGNNAVNWYQQLPGTAPKLLIYSNSHRPSGVPDRFSGSKSGTSASLAISGLRSEDEADYYCGSWDASLNGYVFGGGTKLTVLG
- EC50 (read off the curve) [1]: ~0.3 µg/mL

B6: 2D IgG (antibody, V domains shown)
VH: EVQLLESGGGLVQPGGSLRLSCAASGFTFSSYYMSWVRQAPGKGLEWVSGISPGSGSKYYADSVKGRFTISRDNSKNTLYLQMNSLRAEDTAVYYCARATVPCKGPACYSAYGMDVWGQGTLVTVSS
VL: B7 VL with S11P, T23S, S33A, T35N, A51S, Q54H, A91S, D94A, A98G
notes: IgG made from 2D scFv VH and VL in pcDNA3.4 and expressed in 293F cells; Detected with human IgG-HRP; also called IgG containing the variable regions of clone 2D
- Kd [4]: 11.6 nM
- koff [4]: 0.00276 s⁻¹
- kon [4]: 237000 M⁻¹ s⁻¹
- binding result [5]: no binding (tested: 100 ng/ml)
